Target: Mps1-1 kinetochores (budding yeast) (UniProt P40568)
Assay: optical trap force-clamp flow assay

Sequence of UniProt P40568 (P40568 whole entry, looked up): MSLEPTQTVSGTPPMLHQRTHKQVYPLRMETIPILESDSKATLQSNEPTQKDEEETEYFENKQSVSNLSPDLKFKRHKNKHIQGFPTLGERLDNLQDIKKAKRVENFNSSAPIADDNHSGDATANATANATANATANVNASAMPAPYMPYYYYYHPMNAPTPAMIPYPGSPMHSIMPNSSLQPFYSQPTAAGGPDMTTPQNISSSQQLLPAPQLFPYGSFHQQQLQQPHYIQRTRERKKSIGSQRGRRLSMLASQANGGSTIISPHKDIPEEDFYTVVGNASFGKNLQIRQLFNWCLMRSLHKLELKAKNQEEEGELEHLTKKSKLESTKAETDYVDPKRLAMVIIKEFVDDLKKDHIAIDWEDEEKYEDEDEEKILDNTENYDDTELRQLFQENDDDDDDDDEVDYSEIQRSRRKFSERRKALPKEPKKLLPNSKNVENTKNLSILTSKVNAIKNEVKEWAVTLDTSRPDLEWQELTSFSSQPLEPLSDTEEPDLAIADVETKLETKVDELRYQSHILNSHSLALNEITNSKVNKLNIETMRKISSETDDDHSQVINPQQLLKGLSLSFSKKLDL

Substance: dynamic microtubules (assembling and shortening tips of single, coverslip-anchored microtubules) (from UniProt Q6B856 1-445) (complex)
- detachment rate (with 0.5 μM AurB*, 1.5 pN): 28.9 hr^-1
- detachment rate (with 0.5 μM AurB*, 5 pN): 7 hr^-1
- detachment rate (with 0.5 μM AurB*, ~1 pN): 4.6 hr^-1
- detachment rate (with 0.5 μM AurB*-KD, 1.5 pN): 10.4 hr^-1
- detachment rate (with 0.5 μM AurB*-KD, 5 pN): 7 hr^-1
- detachment rate (with 5 μM AurB*, ~1 pN): 7.2 hr^-1

Source: doi:10.1101/415992
